The values that follow are results of earlier work, collected in publication PMC4117600.

A word on the Kd: it is the free concentration of one partner at which half of the binding sites on the other are occupied at equilibrium, for simple one-to-one binding.

Like-named read-outs stand apart in the source and are kept apart here.

The target in data set [1] is CCR4 (Homo sapiens) (UniProt P51679).
Data set [2] shares this target. The source holds these as a separate data set.

Sequence of CCR4 (Homo sapiens) (P51679 whole entry): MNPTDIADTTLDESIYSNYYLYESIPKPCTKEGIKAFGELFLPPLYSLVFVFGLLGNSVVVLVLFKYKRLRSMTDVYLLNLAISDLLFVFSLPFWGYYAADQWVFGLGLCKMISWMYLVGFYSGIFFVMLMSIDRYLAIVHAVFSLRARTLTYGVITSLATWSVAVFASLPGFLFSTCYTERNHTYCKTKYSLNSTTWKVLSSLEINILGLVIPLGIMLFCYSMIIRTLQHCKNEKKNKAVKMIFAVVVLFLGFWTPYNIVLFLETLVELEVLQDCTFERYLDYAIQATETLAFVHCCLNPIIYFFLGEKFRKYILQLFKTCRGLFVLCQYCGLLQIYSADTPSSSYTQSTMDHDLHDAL
Sequence of CCL17 (Q92583 24-94): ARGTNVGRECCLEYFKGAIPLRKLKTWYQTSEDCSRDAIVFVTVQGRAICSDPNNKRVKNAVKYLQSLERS
Sequence of CCL22 (O00626 25-93): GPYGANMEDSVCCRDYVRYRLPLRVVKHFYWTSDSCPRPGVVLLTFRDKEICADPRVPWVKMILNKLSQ

For the substance CCL22 (from UniProt O00626), the Kd with CCR4 (Homo sapiens) [1] is 0.18 nM.

As to CCL17 (from UniProt Q92583), in the data set with CCR4 (Homo sapiens) [2], the equilibrium dissociation constant (Kd) was 2.1 nM.
